T1: MtrE carrying a C-terminal TwinStrep-tag (Methanosarcina mazei, UniProt P80651 1-304)
T1 construct: MtrE of the Mtr complex, Methanosarcina mazei DSM 3647, locus MM_1547; the mtrE gene was amplified from chromosomal DNA with primers from the start codon to the last codon before the tag; The plasmid was put into wild-type M. mazei, so untagged chromosomal MtrE may stand in the trimeric complex beside the tagged copy; also called MtrE-TS; TS-tagged MtrE; source: M. mazei DSM 3647, from shuttle …
T1 sequence (looked up): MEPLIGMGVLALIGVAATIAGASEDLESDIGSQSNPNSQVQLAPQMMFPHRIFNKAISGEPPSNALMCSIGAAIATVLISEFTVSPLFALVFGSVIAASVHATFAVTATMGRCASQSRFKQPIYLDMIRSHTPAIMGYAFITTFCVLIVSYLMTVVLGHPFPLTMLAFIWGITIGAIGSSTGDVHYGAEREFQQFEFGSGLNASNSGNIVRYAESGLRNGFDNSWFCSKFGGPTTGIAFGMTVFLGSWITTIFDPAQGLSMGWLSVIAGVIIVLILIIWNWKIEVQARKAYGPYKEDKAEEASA


How the values were obtained:
[1] = target: T1, MtrE carrying a C-terminal TwinStrep-tag; test: cryo-EM structure; single-particle cryo-EM of the native Mtr complex purified from methanol-grown M. mazei through MtrE-TwinStrep (Strep-Tactin), LMNG-solubilised, 6 mg/mL with 1 mM CHAPSO; buffer 50 mM MOPS/NaOH pH 7.0, 10 mM MgCl2, 150 mM NaCl; C1 consensus map with local refinements of MtrA and MtrH; conditions: both partners purified
[2] = target: the molecule itself; test: as above

| binding result [1] | Binder | binding result [2] |
| --- | --- | --- |
| binds | MtrF, subunit F of the Mtr complex (natural protein, UniProt P80654 1-72, looked up, MtrF of the Mtr complex, Methanosarcina mazei DSM 3647 (Goe1); single-spanning stalk subunit; Three copies stand in the whole complex; also called chain F; helix F; source: endogenous, M. mazei membranes, LMNG-solubilised, co-purified with MtrE-TwinStrep on Strep-Tactin) MAEEHEKGVPMVLAPQMGAIDATVESIRYRAQLIARNQKLDSGVAATGIIGFAAGFLFSLLMVIVLPVAVGL | – |
| – | MtrG, subunit G of the Mtr complex (natural protein, UniProt P80656 1-72, looked up, MtrG of the Mtr complex, Methanosarcina mazei DSM 3647 (Goe1); single-spanning stalk subunit; Three copies stand in the whole complex and form a three-helix bundle in the membrane plane; also called chain G; source: endogenous, M. mazei membranes, LMNG-solubilised, co-purified with MtrE-TwinStrep on Strep-Tactin) MDGKAPAAFVEPGEFNEVMKRLDQIDEKVEFVNSEVAQRIGKKVGRDIGILYGGVIGLLLFLIYVQISSMFM | binds |
| binds | MtrB, subunit B of the Mtr complex (natural protein, UniProt P80655 1-108, looked up, MtrB of the Mtr complex, Methanosarcina mazei DSM 3647 (Goe1); single-spanning stalk subunit; Three copies stand in the whole complex; also called chain B; helix B; source: endogenous, M. mazei membranes, LMNG-solubilised, co-purified with MtrE-TwinStrep on Strep-Tactin) MSIVRIAPEINLVMDTESGTVTQERKDSIQYSMEPVFERVDKLDAIADDLVNSLSPSKPLLNTWPGRENTSYIAGIYSNSFYGIIVGLAFSGLLALIIYITRLMGGVV | – |

From publication doi:10.1101/2025.06.02.657420, “Structure of the energy converting methyltransferase (Mtr) of Methanosarcina mazei in complex with an oxygen-stress responsive small protein” (bioRxiv, 2025)
